Molecular target: T1, horseradish peroxidase (HRP) (UniProt P00433 31-338)
T1 sequence: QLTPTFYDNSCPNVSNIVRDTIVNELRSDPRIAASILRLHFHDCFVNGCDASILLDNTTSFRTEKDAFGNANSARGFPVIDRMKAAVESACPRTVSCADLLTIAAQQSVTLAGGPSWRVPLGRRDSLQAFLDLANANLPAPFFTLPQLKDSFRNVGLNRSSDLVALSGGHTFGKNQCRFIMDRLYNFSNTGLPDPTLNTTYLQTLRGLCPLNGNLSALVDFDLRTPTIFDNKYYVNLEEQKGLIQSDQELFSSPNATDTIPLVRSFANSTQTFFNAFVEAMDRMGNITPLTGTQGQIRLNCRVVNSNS
Test: in vitro mannose binding potency assay; inferred from the Q133K FimCH complex

B1: FimC (other)
chain: GVALGATRVIYPAGQKQVQLAVTNNDENSTYLIQSWVENADGVKDGRFIVTPPLFAMKGKKENTLRILDATNNQLPQDRESLFWMNVKAIPSMDKSKLTENTLQLAIISRIKLYYRPAKLALPPDQAAEKLRFRRSANSLTLINPTPYYLTVTELNAGTRVLENALVPPMGESAVKLPSDAGSNITYRTINDYGALTPKMTGVME
notes: also called FimC protein
B1: no binding.

— patent EP3069729A1 (Sequoia Sciences, Inc., dated 2016)
